Experimental data: patent publication US20180155451A1 (published 2018)

T1: FcγRIIb (human, UniProt P31994 43-217)
T1 construct: extracellular domain; also called FcgRIIb; 2b
T1 sequence (looked up): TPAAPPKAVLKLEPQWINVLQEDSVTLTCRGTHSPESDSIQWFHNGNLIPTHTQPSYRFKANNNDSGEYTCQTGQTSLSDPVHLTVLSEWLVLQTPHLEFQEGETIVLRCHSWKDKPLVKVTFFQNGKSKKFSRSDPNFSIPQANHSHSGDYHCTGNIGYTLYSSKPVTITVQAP

T2: FcγRIIb extracellular domain with C-terminal His tag (human, UniProt P31994 43-217)
T2 construct: extracellular domain; also called 2b; FcgRIIb
T2 sequence (looked up): T1 sequence (looked up)

B1: GpH7-A5/GpH7-B3 variant I336_04F/GpL16-k0 (antibody, human IgG1, kappa)
heavy 1: not shown
heavy 2: not shown
light: DIVMTQSPLSLPVTPGEPASISCQASESLVHSNRNTYLHWYLQKPGQSPQLLIYKVSNRFSGVPDRFSGSGSGTDFTLKISRVEAEDVGVYYCSQNTHVPPTFGQGTKVEIERTVAAPSVFIFPPSDEQLKSGTASVVCLLNNFYPREAKVQWKVDNALQSGNSQESVTEQDSKDSTYSLSSTLTLSKADYEKHKVYACEVTHQGLSSPVTKSFNRGEC
notes: heterodimerized IgG1, one H chain mutated; also called He Ab
B2: GpH7-A5/GpH7-B3 variant I336_15Y/GpL16-k0 (antibody, human IgG1, kappa)
heavy 1: not shown
heavy 2: not shown
light: B1 light
notes: as for B1
B3: GpH7-A5/GpH7-B3 variant I336_16H/GpL16-k0 (antibody, human IgG1, kappa)
heavy 1: not shown
heavy 2: not shown
light: B1 light
notes: as for B1
B4: GpH7-A5/GpH7-B3 variant I336_12R/GpL16-k0 (antibody, human IgG1, kappa)
heavy 1: not shown
heavy 2: not shown
light: B1 light
notes: as for B1
B5: GpH7-A5/GpH7-B3 variant I336_18N/GpL16-k0 (antibody, human IgG1, kappa)
heavy 1: not shown
heavy 2: not shown
light: B1 light
notes: as for B1
B6: GpH7-A5/GpH7-B3 variant S337_03V/GpL16-k0 (antibody, human IgG1, kappa)
heavy 1: not shown
heavy 2: not shown
light: B1 light
notes: as for B1
B7: GpH7-A5/GpH7-B3 variant S337_02A/GpL16-k0 (antibody, human IgG1, kappa)
heavy 1: not shown
heavy 2: not shown
light: B1 light
notes: as for B1
B8: GpH7-A5/GpH7-B3 variant I336_11K/GpL16-k0 (antibody, human IgG1, kappa)
heavy 1: not shown
heavy 2: not shown
light: B1 light
notes: as for B1
B9: GpH7-A5/GpH7-B3 variant I336_14T/GpL16-k0 (antibody, human IgG1, kappa)
heavy 1: not shown
heavy 2: not shown
light: B1 light
notes: as for B1
B10: GpH7-A5/GpH7-B3 variant S337_19Q/GpL16-k0 (antibody, human IgG1, kappa)
heavy 1: not shown
heavy 2: not shown
light: B1 light
notes: as for B1
B11: GpH7-A5/GpH7-B3 variant I336_13S/GpL16-k0 (antibody, human IgG1, kappa)
heavy 1: not shown
heavy 2: not shown
light: B1 light
notes: as for B1
B12: GpH7-A5/GpH7-B3 variant S337_06M/GpL16-k0 (antibody, human IgG1, kappa)
heavy 1: not shown
heavy 2: not shown
light: B1 light
notes: as for B1
B13: GpH7-A5/GpH7-B3 variant S337_04F/GpL16-k0 (antibody, human IgG1, kappa)
heavy 1: not shown
heavy 2: not shown
light: B1 light
notes: as for B1
B14: GpH7-A5/GpH7-B3 variant S337_12R/GpL16-k0 (antibody, human IgG1, kappa)
heavy 1: not shown
heavy 2: not shown
light: B1 light
notes: as for B1
B15: GpH7-A5/GpH7-B3 variant I336_19Q/GpL16-k0 (antibody, human IgG1, kappa)
heavy 1: not shown
heavy 2: not shown
light: B1 light
notes: as for B1
B16: GpH7-A5/GpH7-B3 variant S337_01G/GpL16-k0 (antibody, human IgG1, kappa)
heavy 1: not shown
heavy 2: not shown
light: B1 light
notes: as for B1
B17: GpH7-A5/GpH7-B3 variant S337_11K/GpL16-k0 (antibody, human IgG1, kappa)
heavy 1: not shown
heavy 2: not shown
light: B1 light
notes: as for B1
B18: GpH7-A5/GpH7-B3 variant I336_10E/GpL16-k0 (antibody, human IgG1, kappa)
heavy 1: not shown
heavy 2: not shown
light: B1 light
notes: as for B1
B19: GpH7-A5/GpH7-B3 variant I336_09D/GpL16-k0 (antibody, human IgG1, kappa)
heavy 1: not shown
heavy 2: not shown
light: B1 light
notes: as for B1
B20: GpH7-A5/GpH7-B3 variant I332_01G/GpL16-k0 (antibody, human IgG1, kappa)
heavy 1: not shown
heavy 2: not shown
light: B1 light
notes: He Ab: alteration in one H chain only; also called He Ab
B21: GpH7-A5/GpH7-B3 variant S298_14T/GpL16-k0 (antibody, human IgG1, kappa)
heavy 1: not shown
heavy 2: not shown
light: B1 light
notes: as for B20
B22: GpH7-A5/GpH7-B3 variant I332_13S/GpL16-k0 (antibody, human IgG1, kappa)
heavy 1: not shown
heavy 2: not shown
light: B1 light
notes: as for B20
B23: GpH7-A5/GpH7-B3 variant I332_19Q/GpL16-k0 (antibody, human IgG1, kappa)
heavy 1: not shown
heavy 2: not shown
light: B1 light
notes: as for B20
B24: GpH7-A5/GpH7-B3 variant Y300_08L/GpL16-k0 (antibody, human IgG1, kappa)
heavy 1: not shown
heavy 2: not shown
light: B1 light
notes: as for B20
B25: GpH7-A5/GpH7-B3 variant S298_02A/GpL16-k0 (antibody, human IgG1, kappa)
heavy 1: not shown
heavy 2: not shown
light: B1 light
notes: as for B20
B26: GpH7-A5/GpH7-B3 variant S324_02A/GpL16-k0 (antibody, human IgG1, kappa)
heavy 1: not shown
heavy 2: not shown
light: B1 light
notes: as for B20
B27: GpH7-A5/GpH7-B3 variant S324_14T/GpL16-k0 (antibody, human IgG1, kappa)
heavy 1: not shown
heavy 2: not shown
light: B1 light
notes: as for B20
B28: GpH7-A5/GpH7-B3 variant E333_20W/GpL16-k0 (antibody, human IgG1, kappa)
heavy 1: not shown
heavy 2: not shown
light: B1 light
notes: as for B20
B29: GpH7-A5/GpH7-B3 variant S298_03V/GpL16-k0 (antibody, human IgG1, kappa)
heavy 1: not shown
heavy 2: not shown
light: B1 light
notes: as for B20
B30: GpH7-A5/GpH7-B3 variant S324_16H/GpL16-k0 (antibody, human IgG1, kappa)
heavy 1: not shown
heavy 2: not shown
light: B1 light
notes: as for B20
B31: GpH7-A5/GpH7-B3 variant S324_15Y/GpL16-k0 (antibody, human IgG1, kappa)
heavy 1: not shown
heavy 2: not shown
light: B1 light
notes: as for B20
B32: GpH7-A5/GpH7-B3 variant Q295_14T/GpL16-k0 (antibody, human IgG1, kappa)
heavy 1: not shown
heavy 2: not shown
light: B1 light
notes: as for B20
B33: GpH7-A5/GpH7-B3 variant S324_09D/GpL16-k0 (antibody, human IgG1, kappa)
heavy 1: not shown
heavy 2: not shown
light: B1 light
notes: as for B20
B34: GpH7-A5/GpH7-B3 variant S324_20W/GpL16-k0 (antibody, human IgG1, kappa)
heavy 1: not shown
heavy 2: not shown
light: B1 light
notes: as for B20
B35: GpH7-A5/GpH7-B3 variant Q295_02A/GpL16-k0 (antibody, human IgG1, kappa)
heavy 1: not shown
heavy 2: not shown
light: B1 light
notes: as for B20
B36: GpH7-A5/GpH7-B3 variant L234_04F/GpL16-k0 (antibody, human IgG1, kappa)
heavy 1: not shown
heavy 2: not shown
light: B1 light
notes: as for B20
B37: GpH7-A5/GpH7-B3 variant Q295_10E/GpL16-k0 (antibody, human IgG1, kappa)
heavy 1: not shown
heavy 2: not shown
light: B1 light
notes: as for B20
B38: GpH7-A5/GpH7-B3 variant S324_01G/GpL16-k0 (antibody, human IgG1, kappa)
heavy 1: not shown
heavy 2: not shown
light: B1 light
notes: as for B20

What follows are binders tested against T1, FcγRIIb (assay: SPR (Biacore), relative to GpH7-A5/GpH7-B3/GpL16-k0 = 100).
Procedure: (§1) The heterodimerized antibodies He Abs in which one of the H chains was introduced with an alteration were assayed for their binding activities to each activating FcγR and inhibitory FcγR according to the method described in Example 4. […] The activating FcγRs in FIGS. 26, 27, 28, and 29 are FcγRIa, FcγRIIa (R), FcγRIIa (H), and FcγRIIIa, respectively.
(§2) Analysis of interaction between objective antibody and the FcγR was carried out using Biacore T100 (GE Healthcare). HBS-EP+ (GE Healthcare) was used as the running buffer, and the measurement temperature was set to 25° C. Chips produced by immobilizing the antigen peptide by the amine coupling method to a Series S Sencor Chip CM5 (GE Healthcare), or alternatively, chips produced by allowing preliminarily biotinylated antigen peptides to interact with and immobilize onto a Series S Sensor Chip SA (certified) (GE Healthcare) were used. Antibodies of interest were captured onto an antigen peptide-immobilized chip, and allowed to interact to each FcγR diluted with running buffer. To regenerate and repeatedly use the chip, the antibodies captured on the chip were washed off by reacting 10 mM glycine-HCl, pH 1.5.

He/Con_2b (IIb binding)	Binder
91.2 relative (control = 100)	B1
68.2 relative (control = 100)	B2
85.8 relative (control = 100)	B3
92.1 relative (control = 100)	B4
97.6 relative (control = 100)	B5
98.9 relative (control = 100)	B6
97.2 relative (control = 100)	B7
90.3 relative (control = 100)	B8
89.5 relative (control = 100)	B9
99.7 relative (control = 100)	B10
83.7 relative (control = 100)	B11
96.7 relative (control = 100)	B12
97.8 relative (control = 100)	B13
99.5 relative (control = 100)	B14
58.2 relative (control = 100)	B15
92 relative (control = 100)	B16
94.3 relative (control = 100)	B17
89.8 relative (control = 100)	B18
92.1 relative (control = 100)	B19

What follows are binders tested against T3, FcγRIa (human, UniProt P12314 16-292) in the same assay as above.
T3 construct: extracellular domain; also called FcgRI; FcgRIa
T3 sequence (P12314 16-292): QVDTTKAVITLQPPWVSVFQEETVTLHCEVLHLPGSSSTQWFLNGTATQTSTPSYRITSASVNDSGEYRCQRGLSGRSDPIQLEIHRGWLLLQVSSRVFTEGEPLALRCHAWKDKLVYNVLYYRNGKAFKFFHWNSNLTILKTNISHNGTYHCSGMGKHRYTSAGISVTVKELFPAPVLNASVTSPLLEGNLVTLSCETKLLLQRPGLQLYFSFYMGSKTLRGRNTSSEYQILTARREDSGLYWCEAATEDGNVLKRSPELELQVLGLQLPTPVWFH
Procedure: as §1, §2

He/Con_1a (Ia binding)	Binder
106 relative (control = 100)	B1
103 relative (control = 100)	B2
101 relative (control = 100)	B3
102 relative (control = 100)	B4
108 relative (control = 100)	B5
107 relative (control = 100)	B6
106 relative (control = 100)	B7
105 relative (control = 100)	B8
104 relative (control = 100)	B9
105 relative (control = 100)	B10
102 relative (control = 100)	B11
107 relative (control = 100)	B12
106 relative (control = 100)	B13
106 relative (control = 100)	B14
104 relative (control = 100)	B15
107 relative (control = 100)	B16
104 relative (control = 100)	B17
108 relative (control = 100)	B18
104 relative (control = 100)	B19

The binders below were run against T2, FcγRIIb extracellular domain with … (assay: SPR, relative to GpH7-A5/GpH7-B3/GpL16-k0).
Procedure: as §1, §2

He/Con_2b	Binder
87.1 control=100	B20
77.9 control=100	B21
98.4 control=100	B22
94.3 control=100	B23
73.6 control=100	B24
73.4 control=100	B25
78.3 control=100	B26
88.4 control=100	B27
89.5 control=100	B28
64.5 control=100	B29
83.5 control=100	B30
88.2 control=100	B31
66.8 control=100	B32
85.8 control=100	B33
87.5 control=100	B34
79.7 control=100	B35
99.8 control=100	B36
94.8 control=100	B37
81.1 control=100	B38

The binders below were run against T4, FcγRIIIa extracellular domain with C-terminal His tag (human, UniProt P08637 17-208) (assay: SPR, relative to GpH7-A5/GpH7-B3/GpL16-k0).
T4 construct: extracellular domain; also called 3a; FcgRIIIa
T4 sequence (P08637 17-208): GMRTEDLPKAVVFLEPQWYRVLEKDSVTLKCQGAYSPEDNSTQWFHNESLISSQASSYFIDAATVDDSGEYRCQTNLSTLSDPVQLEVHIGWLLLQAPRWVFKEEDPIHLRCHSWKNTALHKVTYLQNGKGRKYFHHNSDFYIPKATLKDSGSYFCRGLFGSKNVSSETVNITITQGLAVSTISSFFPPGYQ
Procedure: as §1, §2

He/Con_3a	Binder
111 control=100	B20
113 control=100	B21
104 control=100	B22
110 control=100	B23
105 control=100	B24
160 control=100	B25
104 control=100	B26
103 control=100	B27
101 control=100	B28
109 control=100	B29
104 control=100	B30
101 control=100	B31
115 control=100	B32
101 control=100	B33
102 control=100	B34
106 control=100	B35
118 control=100	B36
100 control=100	B37
105 control=100	B38
